What was measured:
hFcRn (human) = hFcRn (human) (UniProt P61769); assay: ELISA; details: other; remark: other sources report otherwise
[1] = target: single-chain human FcRn, FLAG/His-tagged (human) (UniProt P61769); assay: ELISA, HSA variant immobilised, schFcRn titrated, pH 5.5 (asterisk)

Kd (hFcRn (human))	Kd [1]	Substance
32 nM		HSA13+H510F (from UniProt P02768 25-609)
91.8 nM		HSA13+H535F (from UniProt P02768 25-609)
	250 nM	HSA18 (V424I) (from UniProt P02768 25-609)
